We go through one substance from paper PMC2063917.

Experiment [1] concerns the target NH2-terminal His6-tagged p40 (UniProt Q7Z6M1). The experiment in a line: pull-down.
The next experiment concerns the target His6-TIP47(152-434) (UniProt O60664). Description: pull-down.
UniProt O60664, sequence (O60664 152-434): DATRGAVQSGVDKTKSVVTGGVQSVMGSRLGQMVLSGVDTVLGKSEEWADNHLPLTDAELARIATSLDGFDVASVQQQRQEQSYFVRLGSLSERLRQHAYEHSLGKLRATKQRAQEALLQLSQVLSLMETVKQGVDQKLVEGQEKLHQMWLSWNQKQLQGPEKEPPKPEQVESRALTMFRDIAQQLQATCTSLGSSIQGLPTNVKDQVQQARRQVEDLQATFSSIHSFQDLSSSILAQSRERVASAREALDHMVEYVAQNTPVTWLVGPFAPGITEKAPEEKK

UniProt Q7Z6M1, sequence (Q7Z6M1 whole entry): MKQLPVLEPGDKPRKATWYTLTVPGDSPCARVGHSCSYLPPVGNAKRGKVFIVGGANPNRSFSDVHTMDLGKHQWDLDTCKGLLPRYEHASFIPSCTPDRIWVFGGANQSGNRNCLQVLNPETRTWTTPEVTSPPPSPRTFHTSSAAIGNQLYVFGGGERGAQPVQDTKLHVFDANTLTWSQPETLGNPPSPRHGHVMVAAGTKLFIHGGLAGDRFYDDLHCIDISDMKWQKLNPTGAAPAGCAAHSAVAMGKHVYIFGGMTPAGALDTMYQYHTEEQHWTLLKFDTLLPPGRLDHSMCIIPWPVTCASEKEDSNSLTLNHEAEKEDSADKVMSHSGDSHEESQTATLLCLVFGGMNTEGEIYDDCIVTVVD

In the case of “Rab9-CLLL, untagged (from UniProt P24408 1-201) (natural protein)”, the pmol Rab9 bound (taken as 100% binding) in experiment [1] stood at 3.9 pmol; with His6-TIP47(152-434) it was 1.5 pmol.
